These are literature values, as cited in paper PMC5724930.

Data set [1] has as its target proPanD (Escherichia coli) (UniProt P0A790).
For data set [2] the target is unchanged. The source holds these as a separate data set.

Read-outs that look alike come from different tables or passages of the source.

proPanD (Escherichia coli), sequence (P0A790 whole entry): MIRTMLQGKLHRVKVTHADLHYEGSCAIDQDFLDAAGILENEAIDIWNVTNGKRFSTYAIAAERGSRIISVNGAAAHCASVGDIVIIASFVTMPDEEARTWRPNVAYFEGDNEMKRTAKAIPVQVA
PanZ, sequence (P37613 whole entry): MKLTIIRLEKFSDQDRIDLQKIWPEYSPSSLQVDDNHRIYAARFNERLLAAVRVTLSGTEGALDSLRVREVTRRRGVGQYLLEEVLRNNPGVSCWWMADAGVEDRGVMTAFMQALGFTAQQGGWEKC

Turning to PanZ (from UniProt P37613), the Kd (as a rule, a measure of binding affinity in units of concentration) in data set [1] is 100 nM; in data set [2] it was 4000 nM.
